Positions count from the first letter of the chain named. In names and notes the source's numbering stands. Several values for one entry are separate records, joined by “and”; a condition that tells them apart may be missing. Identical values can stand only once. Like-named read-outs stand apart in the source and are kept apart here.
B1: full-length human D-3-phosphoglycerate dehydrogenase (PHGDH, 1-533), wild type (enzyme, UniProt O43175 1-533, looked up)
chain: MAFANLRKVLISDSLDPCCRKILQDGGLQVVEKQNLSKEELIAELQDCEGLIVRSATKVTADVINAAEKLQVVGRAGTGVDNVDLEAATRKGILVMNTPNGNSLSAAELTCGMIMCLARQIPQATASMKDGKWERKKFMGTELNGKTLGILGLGRIGREVATRMQSFGMKTIGYDPIISPEVSASFGVQQLPLEEIWPLCDFITVHTPLLPSTTGLLNDNTFAQCKKGVRVVNCARGGIVDEGALLRALQSGQCAGAALDVFTEEPPRDRALVDHENVISCPHLGASTKEAQSRCGEEIAVQFVDMVKGKSLTGVVNAQALTSAFSPHTKPWIGLAEALGTLMRAWAGSPKGTIQVITQGTSLKNAGNCLSPAVIVGLLKEASKQADVNLVNAKLLVKEAGLNVTTSHSPAAPGEQGFGECLLAVALAGAPYQAVGLVQGTTPVLQGLNGAVFRPEVPLRRDLPLLLFRTQTSDPAMLPTMIGLLAEAGVRLLSYQTSLVSDGETWHVMGISSLLPSLEAWKQHVTEAFQFHF
B2: full-length PHGDH G140R (enzyme, human, UniProt O43175 1-533, looked up)
chain: B1 chain with G140R
B3: full-length PHGDH E108A (enzyme, human, UniProt O43175 1-533, looked up)
chain: B1 chain with E108A
B4: full-length PHGDH R119A (enzyme, human, UniProt O43175 1-533, looked up)
chain: B1 chain with R119A
B5: full-length PHGDH I121A (enzyme, human, UniProt O43175 1-533, looked up)
chain: B1 chain with I121A
B6: sPHGDH (catalytic unit of human D-3-phosphoglycerate dehydrogenase, 1-307), wild type (domain or fragment, UniProt O43175 1-307, looked up)
chain: MAFANLRKVLISDSLDPCCRKILQDGGLQVVEKQNLSKEELIAELQDCEGLIVRSATKVTADVINAAEKLQVVGRAGTGVDNVDLEAATRKGILVMNTPNGNSLSAAELTCGMIMCLARQIPQATASMKDGKWERKKFMGTELNGKTLGILGLGRIGREVATRMQSFGMKTIGYDPIISPEVSASFGVQQLPLEEIWPLCDFITVHTPLLPSTTGLLNDNTFAQCKKGVRVVNCARGGIVDEGALLRALQSGQCAGAALDVFTEEPPRDRALVDHENVISCPHLGASTKEAQSRCGEEIAVQFVDMV
B7: sPHGDH R135W (domain or fragment, human, UniProt O43175 1-307, looked up)
chain: B6 chain with R135W
B8: sPHGDH R135A (domain or fragment, human, UniProt O43175 1-307, looked up)
chain: B6 chain with R135A
B9: sPHGDH R236E (domain or fragment, human, UniProt O43175 1-307, looked up)
chain: B6 chain with R236E

How the values were obtained:
[1] = target: the molecule itself; assay: AUC
[2] = target: the molecule itself; assay: AUC; remark: listed apart in the source
[3] = target: the molecule itself; assay: AUC; remark: listed apart in the source
[4] = target: O43175; assay: AUC
[5] = target: the molecule itself
[6] = target: the molecule itself; assay: AUC; remark: listed apart in the source
[7] = target: the molecule itself; assay: cell-based or functional assay

Protein | stoichiometry N [2] | stoichiometry N [6] | other results
B1 |  |  | stoichiometry N [1]: 2 and 4
B2 | 2 |  | 
B3 | 2 |  | 
B4 | 2 |  | 
B5 | 2 |  | 
B6 |  |  | stoichiometry N [3]: 2; total concentration at which the dimer and monomer peak ratio is 1:1 [4]: the 1:1 ratio at about 1 μM; Kd [5]: 580 nM
B7 |  | 2 | 
B8 |  | 2 | enzyme activity of the sPHGDH mutant at 2.4 μM against WT [7]: ~80 % of WT
B9 |  | 2 | 
